Data as given in PMC4703965, “Inhibition of Canonical NF-κB Signaling by a Small Molecule Targeting NEMO-Ubiquitin Interaction” (Scientific Reports, 2016).
Where a chain is given by its changes, count along the chain named. Names and notes keep the numbering of the source.

B1: NEMO_(UBAN) (258–350) (domain or fragment, UniProt Q9Y6K9 258-350, looked up)
chain: MQLEDLKQQLQQAEEALVAKQEVIDKLKEEAEQHKIVMETVPVLKAQADIYKADFQAERQAREKLAEKKELLQEQLEQLQREYSKLKASCQES
notes: NEMO (IKKγ, NF-κB essential modulator), UBAN / CC2-LZ region, residues 258–350; 15N-labelled for the NMR experiment; The His6 tag was cleavable by 3C or TEV protease; also called NEMO_(258–350); NEMO_(UBAN) WT; source: cloned into pET vectors, recombinant, purified (details in the Supporting Information); not shown: His6, N-terminal, cleaved
B2: NEMO_(UBAN) C347S (258–350) (domain or fragment, UniProt Q9Y6K9 258-350, looked up)
chain: B1 chain with C90S
notes: NEMO (IKKγ), UBAN / CC2-LZ region, residues 258–350 with C347S; Used for SAXS, for MST/ITC and unlabelled in the NMR experiments with 15N-linUb2; also called NEMO_(258–350) C347S; source: cloned into pET vectors, recombinant, purified (details in the Supporting Information); not shown: His6, N-terminal, cleaved

Key:
linear Ub2 [1] = target: T1, linear Ub2 (UniProt P0CG48 1-76; P0CG48 1-76); assay: NMR titration; 1H,15N TROSY of 100 μM 15N-labeled NEMO_(UBAN) (258–350) without or with unlabeled linear Ub2 at 2:1 (NEMO_(UBAN):Ub2); conditions: both partners purified
T1 construct: ubiquitin, distal moiety of Met1-linked linear di-ubiquitin (two ubiquitins head to tail on one chain); ubiquitin, proximal moiety of Met1-linked linear di-ubiquitin; also called linUb2; methionine-1-linked linear di-ubiquitin; source: recombinant

[2] = target: the molecule itself; assay: SEC-MALS; size exclusion chromatography (SEC) in combination with static light scattering (SLS); in solution
[3] = target: the molecule itself; assay: SAXS; 293 K; 300 mM NaCl, 50 mM Tris-HCl pH 8.0; NEMO_(UBAN) C347S 2.8–9.9 mg/ml; NEMO_(UBAN) C347S and linear Ub2 mixed 2:1 (3.5–12.9 mg/ml) and 2:2 (4.9–12.1 mg/ml)
linear Ub2 [4] = target: T1, linear Ub2; assay: MST + ITC; Microscale Thermophoresis and Isothermal Titration Calorimetry of NEMO_(UBAN) C347S with linUb2; conditions not shown; conditions: both partners purified

Row | Binder | binding result (linear Ub2 [1]) | stoichiometry N [2] | stoichiometry N [3] | Kd (linear Ub2 [4]) [nM]
1 | B1 | binds | 2 | – | –
2 | B2 | – | – | 2 | 1000 to 2000
